We go through 2 substances from patent US20260123609A1.

Assay [1] deals with humanized CD98HC protein (human/mouse chimeric (human amino acids 215-630 of SEQ ID NO: 2 in place of mouse amino acids 147-565 of SEQ ID NO: 1)) (UniProt P08195). In words: flow cytometry, spleen B cells (mCD45+ mCD19+) of CD98HC humanized homozygous mouse (H/H).
The target in assay [2] is mouse CD98HC (NP_001154885.1) (mouse) (UniProt P10852). The experiment in a line: flow cytometry, spleen T cells (mCD45+ mTCR β+) of wild-type C57BL/6 mouse. For orientation: A flow cytometer gives signals particle by particle.
For assay [3] the target is unchanged. The experiment in a line: flow cytometry, spleen B cells (mCD45+ mCD19+) of wild-type C57BL/6 mouse.
The target in assay [4] is humanized CD98HC protein (human/mouse chimeric (human amino acids 215-630 of SEQ ID NO: 2 in place of mouse amino acids 147-565 of SEQ ID NO: 1)) (UniProt P08195). In words: flow cytometry, spleen T cells (mCD45+ mTCR β+) of CD98HC humanized homozygous mouse (H/H).

Sequence of UniProt P10852 (P10852 other isoform, or with tags, fused parts or gaps): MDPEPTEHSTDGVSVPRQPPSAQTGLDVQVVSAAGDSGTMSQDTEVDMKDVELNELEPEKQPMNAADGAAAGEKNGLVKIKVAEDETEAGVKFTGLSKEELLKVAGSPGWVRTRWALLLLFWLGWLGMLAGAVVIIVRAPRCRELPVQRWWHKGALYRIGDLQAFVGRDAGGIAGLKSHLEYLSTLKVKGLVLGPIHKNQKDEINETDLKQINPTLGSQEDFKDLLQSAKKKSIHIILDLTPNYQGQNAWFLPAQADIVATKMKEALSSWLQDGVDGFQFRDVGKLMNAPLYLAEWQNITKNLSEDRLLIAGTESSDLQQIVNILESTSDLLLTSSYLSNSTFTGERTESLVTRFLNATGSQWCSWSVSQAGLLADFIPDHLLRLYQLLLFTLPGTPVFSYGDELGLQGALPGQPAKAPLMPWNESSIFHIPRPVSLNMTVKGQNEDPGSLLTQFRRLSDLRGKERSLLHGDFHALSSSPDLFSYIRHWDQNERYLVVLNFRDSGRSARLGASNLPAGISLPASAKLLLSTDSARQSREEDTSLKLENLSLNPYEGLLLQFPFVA
Sequence of UniProt P08195 (P08195 other isoform, or with tags, fused parts or gaps mutant limits assumed): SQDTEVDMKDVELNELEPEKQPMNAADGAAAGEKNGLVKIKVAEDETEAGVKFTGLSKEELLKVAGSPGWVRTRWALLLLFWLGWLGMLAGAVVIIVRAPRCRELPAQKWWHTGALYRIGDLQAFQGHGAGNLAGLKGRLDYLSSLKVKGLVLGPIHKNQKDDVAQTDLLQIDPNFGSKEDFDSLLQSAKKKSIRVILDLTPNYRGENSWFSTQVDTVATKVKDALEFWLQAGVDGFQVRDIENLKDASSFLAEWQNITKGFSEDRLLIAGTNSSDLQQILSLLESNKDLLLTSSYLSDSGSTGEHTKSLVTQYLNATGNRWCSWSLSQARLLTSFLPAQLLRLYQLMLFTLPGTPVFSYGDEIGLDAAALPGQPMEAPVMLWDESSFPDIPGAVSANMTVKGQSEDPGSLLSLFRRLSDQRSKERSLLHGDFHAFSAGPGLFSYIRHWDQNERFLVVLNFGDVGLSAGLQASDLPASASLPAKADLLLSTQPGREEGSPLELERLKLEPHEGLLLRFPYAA

As to “APC anti-mouse CD98 (4F2) Antibody (Biolegend, Catalog number: 128211)”, the percentage of positive cells in assay [1] turned out to be 0.3%; in assay [2] it was 14.7%; in assay [3], 17.2%; in assay [4], 0.27%.
As for “FITC anti-human CD98 Antibody (Biolegend, Catalog number: 315603)”, the percentage of positive cells in assay [1] was found to be 27.1%; in assay [2], 0.45%; in assay [3], 0.82%; in assay [4], 27.6%.
